Reference: patent US20120171123A1, “USES AND COMPOSITIONS FOR TREATMENT OF RHEUMATOID ARTHRITIS” (priority 2006, published 2012)

Tests used:
[1] = tested on: patients with RA who had failed prior treatment with infliximab; test: Adalimumab after failed infliximab (16-week study): DAS28; assay type: in vivo, human; conditions: for Change in DAS28, mean change from baseline: 16 wk
Description: (§1) Patients eligible to participate in the study included those with long-standing, moderate to severe RA who had terminated infliximab therapy because of lack or loss of efficacy and/or intolerance/side effects. […] Follow-up visits for safety and efficacy monitoring were scheduled at 2, 8, and 16 weeks. […] Efficacy parameters included TJC28 and SJC28; DAS28; ACR20, ACR50 Response; Moderate EULAR response; and HAQ. Subgroup analysis by reason for discontinuation included: • in case of discontinuation due to lack or loss of efficacy, patients were counted in the corresponding group regardless of additional cause of intolerance. • The subgroup “Discontinuation due to intolerance” was exclusive.

[2] = tested on: patients with early vs. long-standing RA; test: Safety of adalimumab in global clinical trials, early vs long-standing RA (serious adverse event rates, demyelinating disease, lymphoma)
Description: (§2) Study J was a 2-year randomized controlled trial in patients with early RA (disease duration<3 years). Participants in these clinical trials and in other phase Mb studies, were routinely evaluated for safety. Reports of serious adverse events (SAE) were tabulated using MedDRA coding by events per 100-patient-years (E/100PY). SAE rates were compared with respect to disease duration between patients with early (<3 yrs) and long-standing RA.

[3] = tested on: patients with long-standing RA; test: Study 4: HAQ disability index; assay type: in vivo, human
Method: Efficacy outcomes were evaluated as observed data: DAS28; ACR 20/50/70; Tender Joint Count (TJC); Swollen Joint Count (SJC); and HAQ Disability Index. Baseline demographics and disease characteristics were similar in both Study 4 and Study 5 consistent with moderate to severe RA, as shown below in Table 64: […]

[4] = tested on: patients with RA who had failed prior treatment with infliximab; test: Adalimumab after failed infliximab: HAQ; assay type: in vivo, human
Description: as §1

[5] = tested on: patients with active rheumatoid arthritis; conditions: Study A (N=2008), 12 weeks; cited from earlier work
[6] = tested on: patients with early vs. long-standing RA; conditions: human, in vivo
Description: as §2

[7] = tested on: patients with RA who had failed prior treatment with infliximab; test: Adalimumab after failed infliximab: ACR20/ACR50 and moderate EULAR response; assay type: in vivo, human; conditions: 16 wk
Description: as §1

[8] = tested on: patients with moderate to severe rheumatoid arthritis; test: Study C (Canadian open-label, adalimumab 40 mg sc eow add-on): TJC/SJC; assay type: in vivo, human
Method: The Canadian Adalimumab Clinical Trial (Study C) was an open-label, multi-center, Phase IIIb study conducted in Canada. […] Efficacy and safety were assessed at baseline, 4, 8, and 12 weeks. Efficacy assessments included tender joint count (TJC 0-28), swollen joint count (SJC 0-28), Disease Activity Score 28 (DAS28), Health Assessment Questionnaire (HAQ), and EULAR response. This was a preliminary analysis of 236 patients. The sample size for each outcome variable is based on the data available at the time of the analysis. The data from this preliminary analysis were compared with the Week 12 data from Study A (N=2008).

[9] = tested on: patients with long-standing RA who had inadequate responses to MTX; test: Study 1: serious adverse events
Method: Periodic ACR component evaluations were also performed throughout the study. Outcome measures included the following: Total Sharp Score (TSS), including joint erosions (JE) and joint space narrowing (JSN); ACR20, ACR50, and ACR70 response rates; and individual components of ACR responses criteria, including swollen joint count (SJC) and tender joint count (TJC). Efficacy and safety evaluations were conducted at regularly scheduled visits.

[10] = all reasons for infliximab withdrawal (N=37)
[11] = no response to infliximab (N=13)
[12] = All Trials adalimumab (4870 PY), data for registration
[13] = Combined (long-standing + early RA)
[14] = Early RA, Study J (N=542; 917 PY)
[15] = Early RA, Study J, N (Exposure) 542 (917)
[16] = Long-standing RA, 31-Aug.-2004 (N=10,050; 12,066 PY)
[17] = Long-standing RA, 31-Aug.-2004, N (Exposure) 10,050 (12,066)
[18] = loss of response to infliximab (N=19)
[19] = Study C, 12 weeks, preliminary analysis
[20] = blinded-controlled and OLE periods

adalimumab: human anti-TNF mAb (HUMIRA, Abbott Laboratories), described in U.S. Pat. No. 6,090,382 as D2E7
Change in DAS28, mean change from baseline [1, 10]: −1.6 | Change in DAS28, mean change from baseline ([1]; infliximab intolerance (N=5)): −1.4 | Change in DAS28, mean change from baseline [1, 11]: −1.0 | maximum change in DAS28 ([1]; week 16): −4.7 | patients with a decrease in DAS28 of ≧1.2 ([1]; week 16, completers (21 of 37)): 57% | Malignancies [2, 12]: 0.006 N/PY | Pneumonia [2, 12]: 0.008 N/PY | TB [2, 12]: 0.003 N/PY | Total lymphomas, Expected [2, 13]: 5.16 cases | Total lymphomas, Observed [2, 13]: 15 cases | Total lymphomas, SIR [2, 13]: 2.91 | Total lymphomas, Expected ([2]; Early RA): 0.37 cases | Total lymphomas, Observed ([2]; Early RA): 0 cases | Total lymphomas, SIR ([2]; Early RA): 0 | cases of lymphoma ([2]; Early RA): No cases | Congestive Heart Failure rate [2, 14]: 0.11 E/100PY | Demyelinating Diseases rate [2, 14]: 0.00 E/100PY | Lymphoma rate [2, 14]: 0.00 E/100PY | Pancytopenia rate [2, 14]: 0.00 E/100PY | Pneumonia (serious) rate [2, 14]: 0.55 E/100PY | SLE/Lupus-like Syndrome rate [2, 14]: 0.00 E/100PY | Septic Arthritis rate [2, 14]: 0.22 E/100PY | Serious Infections rate [2, 14]: 1.85 E/100PY | Tuberculosis rate [2, 14]: 0.11 E/100PY | Urinary Tract Infections (serious) rate [2, 14]: 0.11 E/100PY | Cases of Guillain-Barre syndrome [2, 15]: 0 cases | Cases of Multiple sclerosis [2, 15]: 0 cases | Cases of Non-specific demyelination [2, 15]: 0 cases | Hodgkin's, Expected ([2]; Long-standing RA): 0.36 cases | Hodgkin's, Observed ([2]; Long-standing RA): 1 cases | Hodgkin's, SIR ([2]; Long-standing RA): 2.78 | NHL, Expected ([2]; Long-standing RA): 4.32 cases | NHL, Observed ([2]; Long-standing RA): 14 cases | NHL, SIR ([2]; Long-standing RA): 3.24 | Total lymphomas, Expected ([2]; Long-standing RA): 4.68 cases | Total lymphomas, Observed ([2]; Long-standing RA): 15 cases | Total lymphomas, SIR ([2]; Long-standing RA): 3.21 | Congestive Heart Failure rate [2, 16]: 0.26 E/100PY | Demyelinating Diseases rate [2, 16]: 0.07 E/100PY | Lymphoma rate [2, 16]: 0.11 E/100PY | Pancytopenia rate [2, 16]: 0.02 E/100PY | Pneumonia (serious) rate [2, 16]: 0.87 E/100PY | SLE/Lupus-like Syndrome rate [2, 16]: 0.06 E/100PY | Septic Arthritis rate [2, 16]: 0.46 E/100PY | Serious Infections rate [2, 16]: 4.79 E/100PY | Tuberculosis rate [2, 16]: 0.24 E/100PY | Urinary Tract Infections (serious) rate [2, 16]: 0.38 E/100PY | Cases of Guillain-Barre syndrome [2, 17]: 2 cases | Cases of Multiple sclerosis [2, 17]: 4 cases | Cases of Non-specific demyelination [2, 17]: 2 cases | lymphoma combined SIR ([2]; all RA patients in adalimumab clinical trials, 95% CI 1.63-4.80): 2.91 | cases of demyelinating diseases ([2]; early RA (Study J)): No cases | cases of demyelinating diseases ([2]; long-standing RA, through Aug. 31, 2004): Eight | cases of lymphoma ([2]; long-standing RA, through August 2004): Fifteen | HAQ, % change of mean clinical improvement from baseline ([3]; 6 months): 45% | HAQ, % change of mean clinical improvement from baseline ([3]; 12 months): 43% | HAQ, % change of mean clinical improvement from baseline ([3]; 24 months): 47% | HAQ, % change of mean clinical improvement from baseline ([3]; 36 months): 47% | HAQ, % change of mean clinical improvement from baseline ([3]; 48 months): 50% | change in HAQ ([4]; week 16, all (n=37)): −0.25 | change in HAQ ([4]; week 16, infliximab stopped for intolerance (n=5)): −0.15 | change in HAQ ([4]; week 16, infliximab stopped for loss of response (n=19)): −0.36 | change in HAQ ([4]; week 16, infliximab stopped for no response (n=13)): −0.23 | EULAR response, % good [5]: 34% | EULAR response, % moderate [5]: 82% | Any serious infection [6]: 0.040 N/PY | Serious infections [6]: 4.8 E/100PY | ACR20 [7, 10]: 49% | ACR50 [7, 10]: 26% | Moderate EULAR response [7, 10]: 65% | ACR20 ([7]; infliximab intolerance (N=5)): 40% | ACR50 ([7]; infliximab intolerance (N=5)): 20% | Moderate EULAR response ([7]; infliximab intolerance (N=5)): 80% | ACR20 [7, 18]: 61% | ACR50 [7, 18]: 39% | Moderate EULAR response [7, 18]: 74% | ACR20 [7, 11]: 33% | ACR50 [7, 11]: 8% | Moderate EULAR response [7, 11]: 46% | SJC (0-28), change from baseline, median [8, 19]: −7 (123) | TJC (0-28), change from baseline, median [8, 19]: −10 (123) | mean SJC ([8]; week 12 (baseline 14)): 7.4 | mean TJC ([8]; week 12 (baseline 17)): 8.1 | Demyelinating disease [9, 20]: 0.2 events/100-PY | Histoplamosis [9, 20]: 0.2 events/100-PY | Tuberculosis [9, 20]: 0.2 events/100-PY | Demyelinating disease ([9]; blinded-controlled period): 0.3 events/100-PY | Histoplamosis ([9]; blinded-controlled period): 0.3 events/100-PY | Tuberculosis ([9]; blinded-controlled period): 0.3 events/100-PY | Lymphoma ([9]; in vivo): 0.3 events/100-PY | Urinary tract infections ([9]; in vivo): 0.3 events/100-PY
